Data on three molecules can be found in patent US20240101667A1, “METHODS FOR IDENTIFYING LILRB-BLOCKING ANTIBODIES” (THE BOARD OF REGENTS OF THE UNIVERSITY OF TEXAS SYSTEM, priority 2020, published 2024).

Assay [1] deals with T1, LILRB3 (Homo sapiens, UniProt O75022). The assay is described as follows: Octet-based epitope binning assay. Particulars: Octet sandwich binning. It counts as binding. Here is the method: (§1) Affinity measurement and epitope binning: Affinity measurement and epitope binning were done as described previously (Gui et al., 2019). Briefly, antibody affinity was analyzed with the Octet RED96 instrument. Antibody ([…]) was loaded onto the protein A biosensors then exposed to a series of concentrations of recombinant LILRB3 (0.1-200 nmol/L), and background subtraction was used to correct for sensor drift. ForteBio's data analysis software was used to extract association and dissociation rates assuming a 1:1 binding model. The Kd was calculated as the ratio koff/kon. Epitope binning of anti-LILRB3 rabbit antibodies was performed with an Octet RED96 instrument using a classical sandwich epitope binning assay. In these epitope binning assays, primary antibodies (40 μg/ml) were loaded onto protein A biosensors, and remaining Fc-binding sites on the sensor were blocked with a human non-targeting IgG (200 μg/ml). The sensors were then exposed to the 1 μM LILRB3 diluted in 1× kinetics buffer, followed by the secondary antibodies (40 μg/ml). Raw data were processed using ForteBio's Data Analysis Software 7.0. Antibody pairs were assessed for competitive binding. […]
In general terms: In BLI a coated tip is dipped into the sample, and binding shifts an interference pattern.

Assay [2] addresses T1, LILRB3. The assay is described as follows: Affinity measurement with Octet RED96. The following applies: compared between the two IgGs of bin 3. It is filed as binding. Here is the method:
as §1

The subject of a further assay is LILRAs and other LILRBs. Put plainly: Cross-reactivity with LILRAs and other LILRBs (binding analyses). Further details: species or system human. The following applies: versus LILRAs and other LILRBs. As for the experimental part: (§2) FIGS. S6A-J. Development of anti-LILRB3 blocking antibodies for suppressing AML development. (FIG. S6a) Upper: Flow chart of strategy for development of fully humanized antibodies against LILRB3. Lower: The identified antibodies were tested in the LILRB3 chimeric receptor reporter cell assay. (FIG. S6b) ELISA results for LILRB3 binders. (FIG. S6c) EC50 values of the anti-LILRB3 antibodies based on ELISA. (FIG. S6d) Affinities of antibodies #32, #33, #67, and #45 to LILRB3 as determined by Octet. (FIG. S6e) Cross-reactivity of the anti-LILRB3 antibodies with LILRAs evaluated with LILRA binding analyses. (FIG. S6f) Cross-reactivity of the anti-LILRB3 antibodies with other LILRBs evaluated with LILRB binding analyses. (FIG. S6g) Interaction with TRAF2 contributes to the effect of LILRB3 on AML development. CFU assay of MLL-AF9 AML cells expressing wild-type LILRB3 or mutant LILRB3 with mutations disrupting TRAF2 binding (AAA, QEE509-511AAA) or disrupting SHP-1/2 interactions (Y596/626F) in the presence of control or anti-LILRB3 antibodies (n=3 wells). […] (FIG. S6j) NF-κB signaling target gene expression (measured by qPCR) in THP-1 cells from BM of xenografted NSG mice treated with anti-LILRB3 #1NA or IgG (n=3 individual samples). The data are presented as mean±s.e.m, and p values were calculated by two-tailed t-test except for FIG. S6i by log-rank test.

Another assay concerns MLL-AF9 AML cells. The assay is described as follows: CFU assay of mouse MLL-AF9 AML cells. It counts as cell-based. The following applies: for colony formation by MLL-AF9 cells: screen of the high-affinity IgGs.
Description: (§3) FIGS. 7A-N. Blocking anti-LILRB3 antibody prevents monocytic AML development. (FIG. 7A) Epitope binning of 30 high-affinity IgGs. (FIG. 7B) CFU assay of mouse MLL-AF9 AML cells in the presence of above IgGs (n=3 independent experiments). (FIG. 7C) Binding affinities of the two IgGs from bin #3. (FIG. 7D) Upper: Schematic of treatment. Lower: Percentages of GFP^+ MLL-AF9 mouse AIL cells in peripheral blood (PB), bone marrow (BM), spleen (SPL), and liver (LV) of mice transplanted with AML cells expressing B3-FL or B3delICD and injected with IgG or anti-LILRB3 #1 N297A (n=3 independent mice). (FIG. 7E) Overall survival of mice transplanted with indicated AML cells as above. (FIG. 7F) CFU assay of MLL-AF9 mouse AML cells expressing B3-FL or B3delICD in the presence of IgG or anti-LILRB3 #1 N297A (n=3 independent experiments) (FIG. 7G) Upper: Schematic of treatment. Recipient mice were injected with mouse IgG or anti-mCD8 to deplete CD8 T cells. Lower: Percentages of GFP^+ MLL-AF9 mouse AML cells in peripheral blood (PB), bone marrow (BM), spleen (SPL), and liver (LV) of mice transplanted with AML cells expressing B3-FL or B3delICD and injected with IgG or anti-LILRB3 #1 LALAPG (n=4 mice). (FIG. 7H) Survival of mice as in panel h (n=4 independent mice). (FIG. 7I) Upper: Schematic of treatment. Lower: Whole-body images of NSG mice transplanted with luciferase-expressing THP-1 cells and treated with IgG or anti-LILRB3 #1 N297A (#1NA). (FIG. 7J) Overall survival of the mice shown in panel h (n=3 independent mice). (FIG. 7K) Upper: Schematic of treatment. Lower: Whole-body images of NSG mice transplanted with luciferase-expressing Molm13 cells, injected with activated T cells, and treated with IgG or #1NA. (FIG. 7L) Luciferase signaling as a function of time in mice treated as described in panel k. (FIG. 7M) Overall survival of mice treated as described in panel k (n=3 independent mice). (FIG. 7N) Analyses of T cells in peripheral blood of mice treated as described in panel 1 at 22 days after Molm13 AML cell transplantation. Upper: Flow cytometry analyses. Lower: Plot of T cell percentages (n=3 independent mice). The data are presented as mean±s.e.m, and p values were calculated by two-tailed t-test except for FIG. 7E, FIG. 7H, FIG. 7J and FIG. 7M by log-rank test.
as §2, with “development.” for “development. CFU assay of MLL-AF9 AML cells expressing wild-type LILRB3 or mutant LILRB3 with mutations disrupting TRAF2 binding (AAA, QEE509-511AAA) or disrupting SHP-1/2 interactions (Y596/626F) in the presence of control or anti-LILRB3 antibodies (n=3 wells).”, “The data are presented as mean±s.e.m, and p values were calculated by two-tailed t-test except for FIG. S6i by log-rank test.” left out

For assay [3], the system named is MLL-AF9 AML cells expressing B3-FL or B3delICD. The assay is described as follows: Immuno-competent mice transplanted with MLL-AF9 AML cells expressing B3-FL or B3delICD. It is filed as in vivo, mouse. Particulars: versus IgG.
Description: as §3, with “(FIG. 7N) Analyses of T cells in peripheral blood of mice treated as described in panel 1 at 22 days after Molm13 AML cell transplantation. Upper: Flow cytometry analyses. Lower: Plot of T cell percentages (n=3 independent mice).” left out, “test. […]” for “test.”

B1: #1: fully human anti-LILRB3 blocking IgG, epitope bin 3; B3-1 VH SEQ ID NO: 341, VL SEQ ID NO: 395 (antibody, V domains shown)
VH: EVQLVESGGGVVQPGRSLRLSCAASGFTFSSYGMHWVRQAPGKGLEWVAFIRYDGSNKYYADSVKGRFTISRDNSKNTLYLQMNSLRAEDTAVYYCAKAGFSGWYYYGMDVWGQGTMVTVSS
VL: DIVMTQSPSSLSASVGDRLTITCRASQSISTYLNWYQQKPGKAPKLLIYGASSLQSGVPSRFSGSGSGTDFTLTISSLQPEDFATYFCQQSYGLPLTFGGGTKVDIK
modifications: Synthetic antibody
Regarding B1, the LILRB3 epitope bin result with LILRB3 [1] is recorded as “third bin”. For the same molecule, in the assay with LILRB3 [2], the binding affinity entry is on record as “higher affinity than #26”. Also, the “specificity to LILRB3” value in the assay with LILRAs and other LILRBs is “specific to LILRB3”. Moreover, the “colony formation by MLL-AF9 cells” value in the assay on MLL-AF9 AML cells is on record as “blocked colony formation by MLL-AF9 cells”.

B2: #26: fully human anti-LILRB3 IgG, epitope bin 3; B3-26 VH SEQ ID NO: 353, VL SEQ ID NO: 407 (antibody, V domains shown)
VH: QVQMVESGGGLVKPGGSLRLSCAASGFTFSDHYLSWIRQAPGKGLEWVSYIDLSGSTVYYGDSVKGRFTISRDNARNSVYLQMNSLRAEDTAVYYCARGHYGLDVWGQGTMVTVSS
VL: NIQMTQSPSTLSASVGDRVTISCRASQSIGTWLAWYQQKPGKAPQLLIYKASSLHSGVPSRFSGSGSGTEFTLTISSLQPDDFATYYCQQYNLYSRTFGQGTKVEIK
modifications: Synthetic antibody
For B2, the LILRB3 epitope bin entry with LILRB3 [1] is recorded as “third bin”. Further, the “specificity to LILRB3” value with LILRAs and other LILRBs was “specific to LILRB3”. The “colony formation by MLL-AF9 cells” value with MLL-AF9 AML cells is “blocked colony formation by MLL-AF9 cells”.

B3: anti-LILRB3 #6: anti-LILRB3 antibody which cannot inhibit LILRB3 signaling; B3-6 VH SEQ ID NO: 345, VL SEQ ID NO: 399 (antibody, V domains shown)
VH: QVQLQQSGPGLVKPSQTLSLTCAISGDSVSSNSAAWNWIRQSPSRGLEWLGRTYYRSKWYNNYAVSVKSRITINPDTSKNQFSLQLNSVTPEDTAVYYCARALAGIDGFDVWGQGTTVSVSS
VL: AIQLTQSPSSLSASVGDRITITCRASQSISKYLNWYQQKPGEAPKLLIYAASSLQSGVPSRFSGSGSGTDFTLTISSLQPEDFATYYCQEKDNFGQGTKLEIK
modifications: Synthetic antibody
With B3, the “inhibition of LILRB3 signaling” value in the assay on MLL-AF9 AML cells (FIG. 7b) was “cannot inhibit LILRB3 signaling”. The “progress of AML with B3-FL and with B3del ICD” value in assay [3] is “suppresses the progresses of both AML with B3-FL and AML with B3del ICD with similar efficacies”.
